Target: the molecule itself
Test: cryo-EM structure

B1: E. coli MraY (EcMraY), wild type (enzyme)
chain: MLVWLAEHLVKYYSGFNVFSYLTFRAIVSLLTALFISLWMGPRMIAHLQKLSFGQVVRNDGPESHFSKRGTPTMGGIMILTAIVISVLLWAYPSNPYVWCVLVVLVGYGVIGFVDDYRKVVRKDTKGLIARWKYFWMSVIALGVAFALYLAGKDTPATQLVVPFFKDVMPQLGLFYILLAYFVIVGTGNAVNLTDGLDGLAIMPTVFVAGGFALVAWATGNMNFASYLHIPYLRHAGELVIVCTAIVGAGLGFLWFNTYPAQVFMGDVGSLALGGALGIIAVLLRQEFLLVIMGGVFVVETLSVILQVGSFKLRGQRIFRMAPIHHHYELKGWPEPRVIVRFWIISLMLVLIGLATLKVR
- stoichiometry N: 2

From article PMC12747129 (Science (New York, N.Y.), 2023)
